Measured values from patent publication US20230089604A1, “ANTI-ADSORPTION SOLUTION” (Universiteit Gent, priority 2019, published 2023).

Key:
Assay type in all cases: physicochemical
[1] = Proof of concept (pivotal experiment): D-optimal design for the injection solvent and vial coating that minimize glass adsorption, UHPLC-MS/MS peak area
Experimental: 36 model peptides were selected for evaluation of the anti-adsorption diluent general functionality. The most suitable solvent composition and need of vial coating with the anti-adsorption diluent was evaluated via a D-optimal design model generated by Modde software (Umetrics, Umea, Sweden).
The peptides were analyzed at the concentration specified in Table 5. For model optimization, the analysis wizard was used. […] In the next step, the non-significant model terms (i.e. those not contributing to a higher R^2 and/or Q^2) were removed via the coefficient plot. Outliers in the residuals normal probability plot and the observed versus predicted plot were removed. The optimum was calculated using the optimizer tool of the Modde software.
Using the same UHPLC-MS/MS apparatus as previously described in the proof of principle, the column compartment was kept at 60° C. and the sample compartment at 10° C. respectively. […] The peptides analyzed using the HILIC amide or C18 column system are mentioned in Table 7. […]
To further investigate the wide applicability of this novel anti-adsorption diluent, 36 peptides were selected. […] The necessity of prior coating the vial with anti-adsorption diluent was also evaluated in the same D-optimal design model. Prior to this experiment, the LC-MS suitability of the anti-adsorption diluent was evaluated by injecting the anti-adsorption diluent as such. […]

[2] = Peptide stability by HPLC-PDA (0 h vs 3 h); details: 1 mg/mL, 3 h at 20° C.
Experimental: The 3 h peptide stability was evaluated by high performance liquid chromatography equipped with a photo diode array detector.
The peptide stability of peptide […] (SEQ ID No: 1) was evaluated with HPLC-PDA and the Vydac Everest C18 column. The analytical solution (1 mg/mL) in acetonitrile/water (V/V)+0.1% m/V formic acid (i.e. matching solvent composition as the anti-adsorption diluent without hydrolysate components) was chromatographed with the gradient provided in Table 3. Analysis was performed with a Waters Alliance 2695 HPLC with a Waters 2695 Separations Module, combined with a Flow Through Needle, and a Waters 2996 Photodiode Array Detector with Empower 2 software for data acquisition (Waters, Milford, Mass., USA).
The peptide was injected at 0 h and 3 h.

[3] = Proof of principle (pilot experiment): peptide recovery over time in uncoated glass vial inserts, UHPLC-MS/MS; details: anti-adsorption diluent Source 1, 100 ng/mL, glass vial insert
Experimental: The peptide with amino acid sequence […] (SEQ ID No: 1) was stored in uncoated (U)HPLC vial inserts at a concentration of 100 ng/mL in 2 different solvents for a total of approximately 2 h. […] The vials were stored in the UHPLC autosampler compartment during analysis and at 0 min a vial containing solvent 1 and 100 ng/mL peptide was injected onto the UHPLC-MS/MS to serve as reference. The peptide recovery was calculated by dividing the peptide peak area of each time point and condition by the peptide peak area of sample 0 min in solvent 1. Appropriate blank samples were first subjected to the UHPLC-MS/MS for evaluation of interfering substances. This experiment was performed in uniplicate.
UHPLC-MS/MS of peptide […] was conducted with an Acquity H-class quaternary solvent manager, connected to an Acquity Xevo TQ-S triple quadrupole mass spectrometer (Waters, Milford, Mass., USA). The column compartment was kept at 45° C. and the sample compartment at 20° C. Mobile phase A consisted of water/acetonitrile/dimethylsulfoxide 90/5/5 V/V/V supplemented with 0.1% m/V formic acid and mobile phase B consisted of water/acetonitrile/dimethylsulfoxide 5/90/5 V/V/V supplemented with 0.1% m/V formic acid. Chromatography was performed with an Acquity UHPLC BEH300 C18 column (2.1×100 mm, 1.7 μm particle size) (Waters) protected with a suitable guard column. […]

[4] = Anti-adsorption diluent applicability for polypropylene inserts; details: 100 ng/mL, polypropylene insert, anti-adsorption diluent Source 1
Experimental: Anti-adsorption diluent applicability for polypropylene inserts. The functionality of the anti-adsorption diluent Source 1 in polypropylene inserts was evaluated via the peptide […] (100 ng/mL). The peptide was analyzed in (I) a glass insert with 50/50 V/V water/acetonitrile+0.1% m/V formic acid, (II) a polypropylene insert with 50/50 V/V water/acetonitrile+0.1% m/V formic acid, (III) a glass insert with anti-adsorption diluent Source 1, and (IV) a polypropylene insert with anti-adsorption diluent. The UHPLC-MS/MS method provided in the proof of principle experiment was applied. The experiment was performed in triplicate.
Previous experiments were all conducted using glass inserts. Plastic vials and inserts are also widely used for the chromatography of peptides. Therefore, the applicability of the anti-adsorption diluent was evaluated using a polypropylene insert. The peptide […] (100 ng/mL) was either analyzed using a glass or polypropylene insert with or without anti-adsorption diluent (see FIG. 11).

[5] = Functional evaluation of anti-adsorption diluent from 3 sources (consecutive transfer to 5 glass inserts); details: 100 ng/mL in 50/50 V/V water/acetonitrile + 0.1% m/V formic acid
Experimental: Functional evaluation of anti-adsorption diluent from 3 sources. The functionality of anti-adsorption diluent Source 1, Source 2, and Source 3 was evaluated via the peptide […] (SEQ ID No. 1). The peptide was diluted in either solvent (50/50 V/V water/acetonitrile supplemented with 0.1% m/V formic acid) or in 1 of the 3 anti-adsorption diluent sources to a peptide concentration of 100 ng/mL. The solution was either transferred to an insert and immediately analyzed via UHPLC-MS/MS or repeatedly transferred to inserts (5 inserts in total), with analysis of the 5th insert. UHPLC-MS/MS was carried out as previously discussed in the proof of principle (pilot experiment)-section. To prevent peptide degradation, each sample was prepared immediately prior to injection. Per condition 3 replicates were analyzed.
The pilot and pivotal experiments were carried out using anti-adsorption diluent originating from Source 1. Since Bovine Serum Albumin can differ amongst suppliers, anti-adsorption diluent was prepared originating from 3 sources, referred to as Source 1, Source 2, and Source 3. […] (100 ng/mL analytical concentration) was evaluated and (II) the peptide solution was repeatedly transferred from one insert to another (5 inserts in total) with subsequent analysis of the 5th insert. […]

| Sequence | Peptide peak area ([1]; 1 nM with anti-adsorption diluent Source 1, glass vial) | Peptide peak area ([1]; 1 nM without anti-adsorption diluent, glass vial) | Additional peaks after 3 h incubation (0.5% reporting threshold) [2] | Glass adsorption of the peptide when using the anti-adsorption diluent [3] | Increase of peptide peak area with anti-adsorption diluent compared to without [4] | Peptide peak area after transfer to 5 inserts, as % of peak area without transfer [5] |
| --- | --- | --- | --- | --- | --- | --- |
| EQLSFTSIGILQLLTIGTRSCWFFYCRY (Q49) [Peptide Q49] | 16772.4 | 1363.8 | – | – | – | – |
| MFPTIPLSRLFDNAMLRAH (Pilot peptide) [pilot experiment peptide] | – | – | No additional peaks | completely abolished | approximately 30% | approximately 10% |
